Patent US5731411, “Promotion of homologous DNA pairing by RecA-derived peptides” (The United States of America as represented by the …)

What was measured:
[1] = target: T1, FECO (RecA residues 193-212 peptide) (Escherichia coli, UniProt P0A7G8 SEQ:1-20); test: filter; 10 mM MgCl2, pH 8.3, room temp; less tight without Mg; unstacks ssDNA (permanganate); joint molecules with homologous pBluescript but not pUC19 (Example 5); settings: protein: synthetic; tags: synthetic peptide, HPLC purified; label: 5' 32P
T1 chain: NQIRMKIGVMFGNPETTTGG

[2] = target: T2, WT-14 (RecA residues 196-209 peptide) (Escherichia coli, UniProt P0A7G8); test: filter; peptide up to 100 uM, pH 8.3; no joint molecules; settings: protein: synthetic; tags: synthetic peptide, HPLC purified; label: 5' 32P
T2 chain: RMKIGVMFGNPETT

[3] = target: T1, FECO (RecA residues 193-212 peptide); test: CD, random coil to beta structure, pH 7.5; settings: protein: synthetic; tags: synthetic peptide, HPLC purified

B1: BS-S1 ssDNA (ssDNA)
DNA: GGCCGCTCTAGAACTAGTGGATCCCCCGGGCTGCAGGAATTCGATATCAAGCT
B1: binds [1]; no binding [2].

B2: 57-mer ssDNA (ssDNA)
DNA: CTGTCTACTCTCGAGGTTAACCCGTGCGAATTCTACGATTGGTGCGGCCGGTATATC
B2: binds [3].
